The target in assay [1] is T1, recombinant APC/C (anaphase promoting complex/cyclosome) (UniProt Q9NYG5 1-84; Q9UJX6 1-822; Q9H1A4 1-1944; P30260 1-824). In words: cell-based or functional assay.
In assay [2] the target is T1, recombinant APC/C (anaphase promoting …). Description: enzyme kinetics (in vitro APC/C ubiquitination assay); 20 nM recombinant APC/C, 340 nM CDC20, UBA1, UBE2C K119R, ubiquitin; securin titrated from 50 nM to 5 μM with and without H6; initial velocity; 30 °C, 30 mM HEPES pH 7.4, 175 mM NaCl, 8 mM MgCl2; model for noncompetitive inhibition. Conditions: both partners purified.

Bridge positions count the residues as written; N and C are the ends. Square brackets hold non-standard residues; d marks the D form. Ends that are not written are not given here. R8 = C=CCCCCCC[C@@](C)(N)C(=O)O; S5 = C=CCCC[C@](C)(N)C(=O)O

T1 sequence (P30260 whole entry, looked up, chain 1 of 4): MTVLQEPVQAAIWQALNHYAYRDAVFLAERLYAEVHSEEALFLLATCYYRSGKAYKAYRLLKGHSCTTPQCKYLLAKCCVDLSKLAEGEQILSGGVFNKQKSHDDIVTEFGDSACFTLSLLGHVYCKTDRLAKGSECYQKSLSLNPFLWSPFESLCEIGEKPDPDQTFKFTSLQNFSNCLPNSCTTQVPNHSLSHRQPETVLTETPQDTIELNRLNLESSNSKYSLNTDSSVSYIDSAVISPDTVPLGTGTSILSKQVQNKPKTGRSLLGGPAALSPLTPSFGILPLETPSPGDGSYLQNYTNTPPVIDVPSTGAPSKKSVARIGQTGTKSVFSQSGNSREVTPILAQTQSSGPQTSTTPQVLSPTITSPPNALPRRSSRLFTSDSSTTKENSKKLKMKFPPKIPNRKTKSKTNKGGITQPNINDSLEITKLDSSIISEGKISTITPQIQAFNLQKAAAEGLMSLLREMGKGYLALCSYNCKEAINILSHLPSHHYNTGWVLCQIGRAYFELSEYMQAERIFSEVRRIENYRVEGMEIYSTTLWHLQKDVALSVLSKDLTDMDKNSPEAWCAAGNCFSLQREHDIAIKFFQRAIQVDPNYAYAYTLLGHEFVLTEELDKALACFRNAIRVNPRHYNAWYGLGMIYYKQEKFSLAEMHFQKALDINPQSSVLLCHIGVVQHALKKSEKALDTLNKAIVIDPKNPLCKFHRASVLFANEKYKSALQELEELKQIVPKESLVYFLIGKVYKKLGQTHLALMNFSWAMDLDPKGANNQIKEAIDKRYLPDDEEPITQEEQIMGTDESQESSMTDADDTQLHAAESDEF
T1 sequence (Q9H1A4 whole entry, looked up, chain 2 of 4): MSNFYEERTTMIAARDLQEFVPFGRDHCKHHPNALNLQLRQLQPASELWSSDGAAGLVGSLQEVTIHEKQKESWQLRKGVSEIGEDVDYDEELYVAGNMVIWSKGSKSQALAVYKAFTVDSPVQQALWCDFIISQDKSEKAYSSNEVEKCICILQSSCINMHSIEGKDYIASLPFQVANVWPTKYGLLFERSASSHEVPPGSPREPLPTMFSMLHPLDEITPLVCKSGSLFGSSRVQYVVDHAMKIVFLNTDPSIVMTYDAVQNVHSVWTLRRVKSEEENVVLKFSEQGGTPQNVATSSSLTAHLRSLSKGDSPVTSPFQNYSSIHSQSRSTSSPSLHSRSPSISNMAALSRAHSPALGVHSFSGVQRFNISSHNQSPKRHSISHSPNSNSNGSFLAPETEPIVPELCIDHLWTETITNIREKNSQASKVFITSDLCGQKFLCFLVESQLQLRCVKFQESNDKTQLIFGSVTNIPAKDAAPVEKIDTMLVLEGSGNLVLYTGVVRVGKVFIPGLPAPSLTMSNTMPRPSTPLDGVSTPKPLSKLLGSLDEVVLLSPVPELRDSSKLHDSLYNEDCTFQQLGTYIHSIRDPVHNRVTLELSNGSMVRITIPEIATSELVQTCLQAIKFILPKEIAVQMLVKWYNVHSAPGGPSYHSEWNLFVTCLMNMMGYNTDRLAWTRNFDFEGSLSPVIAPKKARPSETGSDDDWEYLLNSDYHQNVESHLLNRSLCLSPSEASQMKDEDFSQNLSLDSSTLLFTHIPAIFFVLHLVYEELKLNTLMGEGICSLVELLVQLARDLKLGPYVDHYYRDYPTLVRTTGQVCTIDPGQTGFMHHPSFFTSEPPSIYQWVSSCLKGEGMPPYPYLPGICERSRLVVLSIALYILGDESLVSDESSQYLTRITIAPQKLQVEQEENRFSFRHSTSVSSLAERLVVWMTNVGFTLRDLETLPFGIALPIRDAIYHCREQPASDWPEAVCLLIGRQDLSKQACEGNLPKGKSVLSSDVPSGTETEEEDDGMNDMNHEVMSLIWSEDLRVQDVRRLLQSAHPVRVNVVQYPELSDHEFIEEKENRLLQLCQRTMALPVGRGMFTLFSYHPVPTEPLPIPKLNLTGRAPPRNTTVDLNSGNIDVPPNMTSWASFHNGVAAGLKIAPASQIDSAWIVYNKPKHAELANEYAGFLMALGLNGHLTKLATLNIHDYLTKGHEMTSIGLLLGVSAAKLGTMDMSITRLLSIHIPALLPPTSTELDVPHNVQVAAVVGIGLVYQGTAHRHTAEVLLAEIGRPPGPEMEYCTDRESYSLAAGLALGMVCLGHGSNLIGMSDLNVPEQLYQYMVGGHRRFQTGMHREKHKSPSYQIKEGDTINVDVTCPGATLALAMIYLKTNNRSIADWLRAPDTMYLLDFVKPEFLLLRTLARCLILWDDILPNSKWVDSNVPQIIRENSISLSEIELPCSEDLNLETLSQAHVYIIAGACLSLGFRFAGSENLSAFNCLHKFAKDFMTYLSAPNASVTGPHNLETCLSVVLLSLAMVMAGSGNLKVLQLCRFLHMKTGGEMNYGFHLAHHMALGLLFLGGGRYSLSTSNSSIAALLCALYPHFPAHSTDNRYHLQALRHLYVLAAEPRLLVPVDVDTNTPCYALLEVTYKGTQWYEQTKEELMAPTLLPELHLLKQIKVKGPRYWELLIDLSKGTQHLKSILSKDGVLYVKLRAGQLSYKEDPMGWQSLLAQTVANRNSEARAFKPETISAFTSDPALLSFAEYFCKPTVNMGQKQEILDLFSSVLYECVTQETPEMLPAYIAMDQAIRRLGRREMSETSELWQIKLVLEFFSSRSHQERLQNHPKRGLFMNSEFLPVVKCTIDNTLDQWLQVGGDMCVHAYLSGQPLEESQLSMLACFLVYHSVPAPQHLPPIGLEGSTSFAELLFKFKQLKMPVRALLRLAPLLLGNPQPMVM
T1 sequence (Q9UJX6 whole entry, looked up, chain 3 of 4): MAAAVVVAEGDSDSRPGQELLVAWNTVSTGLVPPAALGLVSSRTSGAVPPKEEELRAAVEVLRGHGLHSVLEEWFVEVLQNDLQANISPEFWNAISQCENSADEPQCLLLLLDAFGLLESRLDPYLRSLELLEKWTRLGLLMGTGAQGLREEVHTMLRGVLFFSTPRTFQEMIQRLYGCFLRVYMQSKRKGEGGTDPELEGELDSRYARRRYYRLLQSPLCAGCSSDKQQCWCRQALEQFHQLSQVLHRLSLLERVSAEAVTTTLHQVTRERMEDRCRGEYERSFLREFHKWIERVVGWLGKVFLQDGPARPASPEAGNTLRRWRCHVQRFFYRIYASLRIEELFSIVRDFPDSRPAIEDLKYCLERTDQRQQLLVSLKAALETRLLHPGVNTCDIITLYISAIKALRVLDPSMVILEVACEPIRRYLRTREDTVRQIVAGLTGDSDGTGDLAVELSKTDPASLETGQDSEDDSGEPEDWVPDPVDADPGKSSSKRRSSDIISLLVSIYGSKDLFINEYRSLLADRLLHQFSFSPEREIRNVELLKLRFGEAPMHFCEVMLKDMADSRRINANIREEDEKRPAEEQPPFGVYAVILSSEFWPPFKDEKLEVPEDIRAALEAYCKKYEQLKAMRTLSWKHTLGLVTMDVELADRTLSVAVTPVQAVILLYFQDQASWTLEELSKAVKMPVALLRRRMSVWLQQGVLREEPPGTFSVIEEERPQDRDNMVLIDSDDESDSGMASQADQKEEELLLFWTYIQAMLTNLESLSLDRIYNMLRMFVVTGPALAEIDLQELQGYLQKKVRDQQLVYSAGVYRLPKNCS
T1 sequence (Q9NYG5 whole entry, looked up, chain 4 of 4): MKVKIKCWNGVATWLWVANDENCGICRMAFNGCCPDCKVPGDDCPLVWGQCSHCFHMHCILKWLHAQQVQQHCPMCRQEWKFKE

For the molecule EWW[R8]IKEIQR[S5]RRA (designed binder, staple 4-11) [H6], the “IC50 of in vitro APC/C ubiquitination of the substrate, H6 titrated from 0.01 to 100 μM; blocks E2 recruitment to the RING domain of APC/C” value in assay [1] worked out at 1.96 µM. Further, in assay [2], the Ki is 5.03 ± 0.79 µM.

By Ki is commonly meant a dissociation constant, usually derived from enzyme kinetics or from competition with a known ligand.

The values above are taken from article PMC12169662, “De Novo-Designed APC/C Inhibitors Provide a Rationale for Targeting RING-Type E3 Ubiquitin Ligases” (Journal of Medicinal Chemistry, 2025).
